Assay results published in patent US12604903B2 (priority 2019, dated 2026).

Key:
[1] = tested on: Phytophthora capsici
[2] = tested on: Alternaria brassicicola

B1: TKPCQSDKDCKKFACRKPKVPKCINGFCKCVRAPKKVEPTKPCQSDKDCKKFACRKPKVPKCINGFCKCVR (protein)
chain: TKPCQSDKDCKKFACRKPKVPKCINGFCKCVRAPKKVEPTKPCQSDKDCKKFACRKPKVPKCINGFCKCVR
notes: two NCR13 monomers linked in tandem by the APKKVEP spacer peptide from MtDef5 defensin, 71 amino acids
growth inhibition of P. capsici (in words) [1]: inhibited the growth
Phytophthora capsici MIC ([1]; in vitro growth inhibition): 3 µM
IC50 ([1]; read-out: Phytophthora capsici IC50, in vitro growth inhibition): 1500 nM
antifungal activity against A. brassicicola (in words) [2]: significantly more active
Alternaria brassicicola MIC ([2]; in vitro growth inhibition): 1.5 µM
IC50 ([2]; read-out: Alternaria brassicicola IC50, in vitro growth inhibition): 750 nM
